The record followed here is US20110098217A1 (INDIANA UNIVERSITY RESEARCH AND TECHNOLOGY, published 2011).

Assay [1] concerns the target human glucagon receptor (human) (UniProt P47871). Briefly: cell-based or functional assay.
Assay [2] deals with T1, human glucagon receptor (human, UniProt P47871 26-477). Briefly: cell-based or functional assay.
The target of assay [3] is human GLP-1 receptor (human) (UniProt P43220). Briefly: cell-based or functional assay.
For assay [4], the target named is human glucagon receptor (human) (UniProt P47871). Briefly: cell-based or functional assay. The source holds these as a separate data set.
human glucagon receptor (human), sequence (P47871 26-477): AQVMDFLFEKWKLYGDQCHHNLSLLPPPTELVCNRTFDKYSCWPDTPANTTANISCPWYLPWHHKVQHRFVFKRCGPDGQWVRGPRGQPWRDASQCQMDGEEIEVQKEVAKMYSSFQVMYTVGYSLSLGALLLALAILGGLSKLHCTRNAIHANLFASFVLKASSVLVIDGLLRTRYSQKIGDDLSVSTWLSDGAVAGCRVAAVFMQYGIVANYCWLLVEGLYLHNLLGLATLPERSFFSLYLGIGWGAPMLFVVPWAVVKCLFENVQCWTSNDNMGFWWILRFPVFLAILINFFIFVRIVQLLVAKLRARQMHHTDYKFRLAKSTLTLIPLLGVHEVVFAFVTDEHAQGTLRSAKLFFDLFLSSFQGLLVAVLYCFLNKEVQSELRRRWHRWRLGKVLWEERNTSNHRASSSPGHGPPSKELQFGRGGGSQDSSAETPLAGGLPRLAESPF
The target in assay [5] is T1, human glucagon receptor. Briefly: SPA competition vs 125I-glucagon, receptor membranes.
Assay [6] addresses T2, human GLP-1 receptor (human, UniProt P43220 24-463). Briefly: cell-based or functional assay.
In assay [7] the target is T2, human GLP-1 receptor. Briefly: cell-based or functional assay. This is another data set of the same source.
The target of assay [8] is T1, human glucagon receptor. Briefly: cell-based or functional assay. This is another data set of the same source.
In assay [9] the target is T1, human glucagon receptor. Briefly: cell-based or functional assay. The source holds these as a separate data set.
Assay [10] concerns the target T1, human glucagon receptor. Briefly: cell-based or functional assay. This is another data set of the same source.
Assay [11] concerns the target T1, human glucagon receptor. Briefly: cell-based or functional assay. This is another data set of the same source.
Assay [12] concerns the target T1, human glucagon receptor. Briefly: cell-based or functional assay. This is another data set of the same source.
Assay [13] deals with T1, human glucagon receptor. Briefly: cell-based or functional assay. The source holds these as a separate data set.
Assay [14] concerns the target T1, human glucagon receptor. Briefly: SPA competition vs 125I-glucagon, receptor membranes. This is another data set of the same source.

Where two headings read alike, the source gives them in different places. Numbered stars: 1 amine (or outer) side, 2 acyl side, 3 side chain; on linkers, the order of the positions; unused ones are H or OH. Bridge positions count the residues as written; N and C are the ends. Square brackets hold non-standard residues; d marks the D form. Ends that are not written are not given here. CSA‑2 = Cys(S-CH2CH2COOH), S-(2-carboxyethyl)-L-cysteine, O=C([C@H](CSCCC(=O)[*:3])N[*:1])[*:2]; CSA‑1 = Cys(S-CH2COOH), S-carboxymethyl-L-cysteine, O=C([C@H](CSCC(=O)[*:3])N[*:1])[*:2]; Abu(4-SO3H) = N[C@@H](CCS(=O)(=O)O)C(=O)O; PhLac = O=C(O)[C@@H](O)Cc1ccccc1; NSG‑1 = not defined here; NSG‑2 = not defined here

T1 sequence (P47871 26-477): as above
human GLP-1 receptor (human), sequence (P43220 24-463): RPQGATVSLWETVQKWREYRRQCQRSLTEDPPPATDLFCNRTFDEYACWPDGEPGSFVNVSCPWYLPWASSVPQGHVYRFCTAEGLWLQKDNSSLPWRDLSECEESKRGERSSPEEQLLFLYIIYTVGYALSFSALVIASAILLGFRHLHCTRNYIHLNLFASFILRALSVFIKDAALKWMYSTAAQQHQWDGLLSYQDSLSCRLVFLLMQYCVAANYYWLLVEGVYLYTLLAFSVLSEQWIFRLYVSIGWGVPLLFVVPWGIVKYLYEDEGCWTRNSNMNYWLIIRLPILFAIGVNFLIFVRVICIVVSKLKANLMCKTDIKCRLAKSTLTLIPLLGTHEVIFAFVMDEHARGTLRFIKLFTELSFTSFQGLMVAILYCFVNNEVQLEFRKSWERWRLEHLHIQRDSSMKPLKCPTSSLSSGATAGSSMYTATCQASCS

Regarding “[PLA6, E9, E16K20(Lactam)]G(6-39) (peptide)”, in assay [1], the Glucagon antagonism IC50 (inhibit 0.2-0.8 nM glucagon) is 20.5 nM. Take Ac-[PhLac]TSEYSKYLDSRRAQDFVQWLMNT-NH2 [[Ac-PLA^6, E^9]Glucagon(aa6-29)-NH2]: the “IC50 (cAMP, inhibit 0.8 mM Glucagon)” value in the assay with human glucagon receptor [2] was found to be 38.1 nM. In assay [3], FTSEYSKYLDERRAQDFVQWLMNTGPSSGAPPPS (PLA at position 6; C-terminal amide) [[PLA6, E9, E16]G(6-39)] had a GLP-1 agonism EC50 of 1760 nM. In [4], this molecule came in with a Glucagon antagonism IC50 (inhibit 0.2-0.8 nM glucagon) of 58.1 nM.

B1: [PLA^5, E^9]Glucagon(aa5-29)-NH2 (peptide)
peptide: [PhLac]FTSEYSKYLDSRRAQDFVQWLMNT-NH2
modifications: N-terminus assumed
SMILES: CSCC[C@H](NC(=O)[C@H](CC(C)C)NC(=O)[C@H](Cc1c[nH]c2ccccc12)NC(=O)[C@H](CCC(N)=O)NC(=O)[C@@H](NC(=O)[C@H](Cc1ccccc1)NC(=O)[C@H](CC(=O)O)NC(=O)[C@H](CCC(N)=O)NC(=O)[C@H](C)NC(=O)[C@H](CCCNC(=N)N)NC(=O)[C@H](CCCNC(=N)N)NC(=O)[C@H](CO)NC(=O)[C@H](CC(=O)O)NC(=O)[C@H](CC(C)C)NC(=O)[C@H](Cc1ccc(O)cc1)NC(=O)[C@H](CCCCN)NC(=O)[C@H](CO)NC(=O)[C@H](Cc1ccc(O)cc1)NC(=O)[C@H](CCC(=O)O)NC(=O)[C@H](CO)NC(=O)[C@@H](NC(=O)[C@H](Cc1ccccc1)NC(=O)[C@@H](O)Cc1ccccc1)[C@@H](C)O)C(C)C)C(=O)N[C@@H](CC(N)=O)C(=O)N[C@H](C(N)=O)[C@@H](C)O
Take B1: the “IC50 (cAMP, inhibit 0.8 mM Glucagon)” value with human glucagon receptor [2] worked out at 328 nM. For SQGTFTS[NSG‑1]YSKYLDSRRAQDFVQWLMNT-NH2 (reading uncertain, also called peptide no) [[(NSG-1)^9] Glucagon(aa2-29)-NH2], the IC50 in the assay with human glucagon receptor [5] stood at 983 nM.

Turning to HSQGTFTSDYARYLDARRAREFIKWLVRGRG [ANK2 (Bayer peptide)], in the assay with human GLP-1 receptor [6], the “GLP-1 EC50” value was 0.28 nM. For the same molecule, the “GLP-1 agonism EC50” value with human GLP-1 receptor [7] amounted to 0.28 nM. As to SQGTFTS[NSG‑2]YSKYLDSRRAQDFVQWLMNT-NH2 (reading uncertain, also called peptide no) [[(NSG-2)^9] Glucagon(aa2-29)-NH2], the IC50 with human glucagon receptor [5] turned out to be 2350 nM.

B2: [(CSA-1]^9] Glucagon(aa2-29)-NH2 (peptide)
peptide: SQGTFTS[CSA‑1]YSKYLDSRRAQDFVQWLMNT-NH2
modifications: N-terminus assumed
SMILES: CSCC[C@H](NC(=O)[C@H](CC(C)C)NC(=O)[C@H](Cc1c[nH]c2ccccc12)NC(=O)[C@H](CCC(N)=O)NC(=O)[C@@H](NC(=O)[C@H](Cc1ccccc1)NC(=O)[C@H](CC(=O)O)NC(=O)[C@H](CCC(N)=O)NC(=O)[C@H](C)NC(=O)[C@H](CCCNC(=N)N)NC(=O)[C@H](CCCNC(=N)N)NC(=O)[C@H](CO)NC(=O)[C@H](CC(=O)O)NC(=O)[C@H](CC(C)C)NC(=O)[C@H](Cc1ccc(O)cc1)NC(=O)[C@H](CCCCN)NC(=O)[C@H](CO)NC(=O)[C@H](Cc1ccc(O)cc1)NC(=O)[C@H](CSCC(=O)O)NC(=O)[C@H](CO)NC(=O)[C@@H](NC(=O)[C@H](Cc1ccccc1)NC(=O)[C@@H](NC(=O)CNC(=O)[C@H](CCC(N)=O)NC(=O)[C@@H](N)CO)[C@@H](C)O)[C@@H](C)O)C(C)C)C(=O)N[C@@H](CC(N)=O)C(=O)N[C@H](C(N)=O)[C@@H](C)O
notes: also called peptide no
For the molecule B2, in the assay with human glucagon receptor [5], the IC50 came out at 12.7 nM.

B3: [(CSA-2)^9] Glucagon(aa2-29)-NH2 (peptide)
peptide: SQGTFTS[CSA‑2]YSKYLDSRRAQDFVQWLMNT-NH2
modifications: N-terminus assumed
SMILES: CSCC[C@H](NC(=O)[C@H](CC(C)C)NC(=O)[C@H](Cc1c[nH]c2ccccc12)NC(=O)[C@H](CCC(N)=O)NC(=O)[C@@H](NC(=O)[C@H](Cc1ccccc1)NC(=O)[C@H](CC(=O)O)NC(=O)[C@H](CCC(N)=O)NC(=O)[C@H](C)NC(=O)[C@H](CCCNC(=N)N)NC(=O)[C@H](CCCNC(=N)N)NC(=O)[C@H](CO)NC(=O)[C@H](CC(=O)O)NC(=O)[C@H](CC(C)C)NC(=O)[C@H](Cc1ccc(O)cc1)NC(=O)[C@H](CCCCN)NC(=O)[C@H](CO)NC(=O)[C@H](Cc1ccc(O)cc1)NC(=O)[C@H](CSCCC(=O)O)NC(=O)[C@H](CO)NC(=O)[C@@H](NC(=O)[C@H](Cc1ccccc1)NC(=O)[C@@H](NC(=O)CNC(=O)[C@H](CCC(N)=O)NC(=O)[C@@H](N)CO)[C@@H](C)O)[C@@H](C)O)C(C)C)C(=O)N[C@@H](CC(N)=O)C(=O)N[C@H](C(N)=O)[C@@H](C)O
notes: also called peptide no
In the assay with human glucagon receptor [5], B3 gave an IC50 of 13.3 nM. As to AEGTFTSEYSKYLDERRAKDFVQWLMDT-NH2 (lactam 15-19) [[A2E3, E9, E16K20(Lactam), D28]G(2-29)], the “Glucagon IC50” value with human glucagon receptor [8] amounted to 63 nM. The “Glucagon antagonism IC50 (inhibit 0.2-0.8 nM glucagon)” value with human glucagon receptor [9] turned out to be 63.2 nM. The “Glucagon antagonism IC50 (inhibit 0.8 nM glucagon)” value with human glucagon receptor [10] came out at 63.2 nM; with human glucagon receptor [11] it was 63.2 nM; with human glucagon receptor [12] it was 151 nM.

B4: [PLA^4, E^9]Glucagon(aa4-29)-NH2 (peptide)
peptide: [PhLac]TFTSEYSKYLDSRRAQDFVQWLMNT-NH2
modifications: N-terminus assumed
SMILES: CSCC[C@H](NC(=O)[C@H](CC(C)C)NC(=O)[C@H](Cc1c[nH]c2ccccc12)NC(=O)[C@H](CCC(N)=O)NC(=O)[C@@H](NC(=O)[C@H](Cc1ccccc1)NC(=O)[C@H](CC(=O)O)NC(=O)[C@H](CCC(N)=O)NC(=O)[C@H](C)NC(=O)[C@H](CCCNC(=N)N)NC(=O)[C@H](CCCNC(=N)N)NC(=O)[C@H](CO)NC(=O)[C@H](CC(=O)O)NC(=O)[C@H](CC(C)C)NC(=O)[C@H](Cc1ccc(O)cc1)NC(=O)[C@H](CCCCN)NC(=O)[C@H](CO)NC(=O)[C@H](Cc1ccc(O)cc1)NC(=O)[C@H](CCC(=O)O)NC(=O)[C@H](CO)NC(=O)[C@@H](NC(=O)[C@H](Cc1ccccc1)NC(=O)[C@@H](NC(=O)[C@@H](O)Cc1ccccc1)[C@@H](C)O)[C@@H](C)O)C(C)C)C(=O)N[C@@H](CC(N)=O)C(=O)N[C@H](C(N)=O)[C@@H](C)O
For B4, the “IC50 (cAMP, inhibit 0.8 mM Glucagon)” value with human glucagon receptor [2] is 84.4 nM.

B5: K40-chol G(6-40) (peptide)
peptide: FTSDYSKYLDERRAKDFVQWLMDTGPSSGAPPPSK
modifications: PLA at position 6; lactam bridge Glu16-Lys20; Lys40(COCH2CH2S-Chol) cholesterol conjugate; C-terminal amide
B5 yielded a GLP-1 agonism EC50 in assay [3] of 47 nM. The Glucagon antagonism IC50 (inhibit 0.4 nM glucagon) in assay [4] came to 312 nM. With SQGTFTSXYSKYLDSRRAQDFVQWLMNT (homoglutamic acid (hGlu) at position 9; C-terminal amide, also called peptide no) [[hGlu^9] Glucagon(aa2-29)-NH2], the IC50 with human glucagon receptor [5] was 8.1 nM.

B6: [desHis^1, hCys^9(SO3-), Phe^25, Leu^27] Glucagon-NH2 (peptide)
peptide: SQGTFTS[Abu(4-SO3H)]YSKYLDSRRAQDFVQFLLNT-NH2
modifications: N-terminus assumed
SMILES: CC(C)C[C@H](NC(=O)[C@H](Cc1ccc(O)cc1)NC(=O)[C@H](CCCCN)NC(=O)[C@H](CO)NC(=O)[C@H](Cc1ccc(O)cc1)NC(=O)[C@H](CCS(=O)(=O)O)NC(=O)[C@H](CO)NC(=O)[C@@H](NC(=O)[C@H](Cc1ccccc1)NC(=O)[C@@H](NC(=O)CNC(=O)[C@H](CCC(N)=O)NC(=O)[C@@H](N)CO)[C@@H](C)O)[C@@H](C)O)C(=O)N[C@@H](CC(=O)O)C(=O)N[C@@H](CO)C(=O)N[C@@H](CCCNC(=N)N)C(=O)N[C@@H](CCCNC(=N)N)C(=O)N[C@@H](C)C(=O)N[C@@H](CCC(N)=O)C(=O)N[C@@H](CC(=O)O)C(=O)N[C@@H](Cc1ccccc1)C(=O)N[C@H](C(=O)N[C@@H](CCC(N)=O)C(=O)N[C@@H](Cc1ccccc1)C(=O)N[C@@H](CC(C)C)C(=O)N[C@@H](CC(C)C)C(=O)N[C@@H](CC(N)=O)C(=O)N[C@H](C(N)=O)[C@@H](C)O)C(C)C
notes: also called Cmpd; 4B
Take B6: the “cAMP Induction EC50” value in the assay with human glucagon receptor [13] is 430 nM. In addition, the IC50 with human glucagon receptor [14] was determined as 13.9 nM.

B7: [desHis^1, desPhe^6, hCys^9(SO3-), Phe^25, Leu^27] Glucagon-NH2 (peptide)
peptide: SQGTTS[Abu(4-SO3H)]YSKYLDSRRAQDFVQFLLNT-NH2
modifications: N-terminus assumed
SMILES: CC(C)C[C@H](NC(=O)[C@H](Cc1ccc(O)cc1)NC(=O)[C@H](CCCCN)NC(=O)[C@H](CO)NC(=O)[C@H](Cc1ccc(O)cc1)NC(=O)[C@H](CCS(=O)(=O)O)NC(=O)[C@H](CO)NC(=O)[C@@H](NC(=O)[C@@H](NC(=O)CNC(=O)[C@H](CCC(N)=O)NC(=O)[C@@H](N)CO)[C@@H](C)O)[C@@H](C)O)C(=O)N[C@@H](CC(=O)O)C(=O)N[C@@H](CO)C(=O)N[C@@H](CCCNC(=N)N)C(=O)N[C@@H](CCCNC(=N)N)C(=O)N[C@@H](C)C(=O)N[C@@H](CCC(N)=O)C(=O)N[C@@H](CC(=O)O)C(=O)N[C@@H](Cc1ccccc1)C(=O)N[C@H](C(=O)N[C@@H](CCC(N)=O)C(=O)N[C@@H](Cc1ccccc1)C(=O)N[C@@H](CC(C)C)C(=O)N[C@@H](CC(C)C)C(=O)N[C@@H](CC(N)=O)C(=O)N[C@H](C(N)=O)[C@@H](C)O)C(C)C
notes: His1 and Phe6 deleted; also called Cmpd; 5B
Take B7: in the assay with human glucagon receptor [13], the “cAMP Induction EC50” value was 3210 nM and the “cAMP Inhibition IC50” value is 9220 nM. In addition, the IC50 with human glucagon receptor [14] was 53.3 nM.
